Source: patent US20160129078A1, “Rhomboid Proteins and Uses Thereof” (Queen's University at Kingston, priority 2014, published 2016)

B1: At1g74130 M: 7/8 M-form splice variant of Arabidopsis At1g74130 rhomboid protein (protein, listed as Arabidopsis thaliana)
chain: MHAIFCRRVAVGCSSPQLTKLVTKQASQSRHSLSHLLPFDLSSRFVPPYVVSRSARVHGFFAGKLGNTNLKLKFGNVMESRAGFFSSELPSHGFESGGFTGFQKRGWKSWINGANGVVFGLVIANAAVFTMWRVLGKDNMWMVKNFMLSRYSFMTGRIHTLITSGFSHVGATHIILNMMGLCYFGARIARSFGPRYLLKLYFAGALGGSVFFLSSHALSVISLKGQRVVPKDQLKVPIGKLGANGPVYAITLLDMLLYPKVTTYFGLMLRVPVFAGIYSLGLNIIKMLEVCMMGKTTIP
B2: At1g74130 S: 6/7 S-form splice variant of Arabidopsis At1g74130 rhomboid protein (protein, listed as Arabidopsis thaliana)
chain: MHAIFCRRVAVGCSSPQLTKLVTKQASQSRHSLSHLLPFDLSSRFVPPYVVSRSARVHGFFAGKLGNTNLKLKFGNVMESRAGFFSSELPSHGFESGGFTGFQKRGWKSWINGANGVVFGLVIANAAVFTMWRVLGKDNMWMVKNFMLSRYSFMTGRIHTLITSGFSHVGATHIILNMMGLCYFGARIARSFGPRYLLKLYFAGALGGSVFFLSSHALSVISLKGQRVVPKDQLKVPIGKLGANGPVYAITLLDMLLYPKVTTYFGLMLRVPVFAVRESIA

Key:
[1] = system: Pseudomonas aeruginosa; test: Enhancement of peptide delivery into Pseudomonas aeruginosa; type: cell-based; conditions: nine amino acid peptides targeting Type II secretion pseudopilin subunit
Description: With the Pseudomonas assay system described above, it was also possible to assess the ability and the utility of At1g74130 protein variants in the delivery of other peptides into cells. The assays were designed in the same manner as above to determine if peptide delivery can be enhanced or facilitated by rhomboids. The other peptides used were designed to inhibit protein secretion, in this case, lipases. The peptides used in these assays were nine amino acids long and targeted a specific region of one protein subunit of the Type II secretion machinery pseudopilin. The inhibitory actions of this nine amino acid peptide are due to interactions with the target region of the protein subunit. If peptide delivery was facilitated or enhanced by rhomboids, outcomes may be observed by changes in cell/colony growth (Pseudomonas) on the minimal media-olive oil plates. Such changes in growth would reflect changes in lipase secretion, which is needed for breaking down olive oil so that the released carbon can be used for cell growth.
The delivery of the M variant further into the cell releases the impairment and allows growth to resume (i.e., the assay with elution buffer, DMSO, and M). […]

[2] = system: MDA-MB-231 breast cancer cells; test: MTT viability assay, sensitization to lapatinib; type: cell-based, human; conditions: co-treatment with lapatinib; most prominent at 10 or 15 uM after 48 and 72 hours; 5 or 10 ug protein
Description: (§1) Experiments were thus conducted to assess the ability of At1g74130 proteins or variants to enhance the sensitivity of two breast cancer cell lines to the chemotherapeutic drug lapatinib. The breast cancer cell lines selected for these assays were MDA-MB-231 and MDA-MB-468, two cell lines used frequently in cancer research. Any impact on the cells' ability to pump or transport drugs (in and out) may alter the efficacy a chemotherapeutic drug, e.g., by enhancing levels of cell death) or by increasing effectiveness at lower dosage levels. The design of the breast cancer cell assays was similar to that used for bacteria in the above examples, results, and figures. In these studies, the widely used MTT (methyl thiazolyl diphenyl-tetrazolium bromide) viability assay procedure was used to assess any impact exerted by At1g74130 variant S (see, for example, the MTT procedure described by Nagaria, T. S., et al., Flavopiridol synergizes with sorafenib to induce cytotoxicity and potentiate antitumorigenic activity in EGFR/HER-2 and mutant RAS/RAF breast cancer model systems, Neoplasia, 15:939-951, 2013).
(§2) Cells were cultured at 37° C. in 96-well plates (10,000 cells in 100 ul media per well) for 24-48 hours to near confluency. […] The assays were then read at 570 nm using a microplate scanning spectrophotometer. […]

[3] = system: MDA-MB-468 breast cancer cells; test: MTT viability assay, sensitization to lapatinib; type: cell-based, human; conditions: co-treatment with lapatinib; most prominent at 10 or 15 uM after 48 and 72 hours; 5 or 10 ug protein
Description: as §1, §2

| Molecule | peptide delivery into cells [1] | increase in level of cell death [2] | increase in level of cell death [3] |
| --- | --- | --- | --- |
| B1 | facilitation and/or enhancement of peptide delivery | – | – |
| B2 | – | 20 to 40% | 20 to 40% |
